{"source": "patent US6465618B1", "about": "“Mitogen activated protein kinase (MAPK) kinase” (Asahi Kasei Kabushikiki Kaisha, priority 1997, dated 2002)", "molecules": {"B1": {"name": "activated MKK7: human MKK7 (SEQ ID NO: 2) as GST fusion, activated by co-expression with MEKK1 in E. coli (protein)", "chain": "AASSLEQKLSRLEAKLKQENREARRRIDLNLDISPQRPRPIIVITLSPAPAPSQRAALQLPLANDGGSRSPSSESSPQHPTPPARPRHMLGLPSTLFTPRSMESIEIDQKLQEIMKQTGYLTIGGQRYQAEINDLENLGEMGSGTCGQVWKMRFRKTGHVIAVKQMRRSGNKEENKRILMDLDVVLKSHDCPYIVQCFGTFITNTDVFIAMELMGTCAEKLKKRMQGPIPERILGKMTVAIVKALYYLKEKHGVIHRDVKPSNILLDERGQIKLCDFGISGRLVDSKAKTRSAGCAAYMAPERIDPPDPTKPDYDIRADVWSLGISLVELATGQFPYKNCKTDFEVLTKVLQEEPPLLPGHMGFSGDFQSFVKDCLTKDHRKRPKYNKLLEHSFIKRYETLEVDVASWFKDVMAKTESPRTSGVLSQPHLPFFR", "modifications": "left off: a dimerising Fc or GST"}}, "molecular_target": "T1, JNK1 (Homo sapiens, UniProt P45983)", "T1 construct": "GST (N); made in house; host or cells: E. coli (GST-MKK7: E. coli DH5α co-transformed with a MEKK1 vector)", "T1 sequence (P45983 whole entry)": "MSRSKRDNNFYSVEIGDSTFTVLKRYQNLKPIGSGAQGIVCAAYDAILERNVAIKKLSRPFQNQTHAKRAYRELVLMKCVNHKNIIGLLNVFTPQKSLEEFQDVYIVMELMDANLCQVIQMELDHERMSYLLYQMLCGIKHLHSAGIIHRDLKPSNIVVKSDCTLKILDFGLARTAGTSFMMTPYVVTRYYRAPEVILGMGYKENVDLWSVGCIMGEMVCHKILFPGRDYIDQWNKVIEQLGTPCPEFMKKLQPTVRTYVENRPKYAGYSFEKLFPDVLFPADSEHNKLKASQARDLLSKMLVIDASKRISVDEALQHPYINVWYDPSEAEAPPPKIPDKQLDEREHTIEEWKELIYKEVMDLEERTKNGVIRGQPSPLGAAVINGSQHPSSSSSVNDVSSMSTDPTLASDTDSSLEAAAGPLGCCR", "test": "Activity of activated MKK7 on JNK1, dot hybridization with anti-activated JNK antibody", "format": "biochemical", "details": "0.1 μM MKK7, 0.2 μM JNK1, 0.1 mM ATP, 30° C. 2 hours", "experimental": "In order to screen an inhibitor of MKK7, a completely activated MKK7 was prepared as follows. Illustratively stated, as an activation factor for MKK7, MEKK1 which is suspected to exist in the upstream of MKK7 and activate MKK7, was used. A commercially available MEKK1 gene (manufactured and sold by Stratagene Cloning Systems, USA) was inserted into an E. coli expression vector in which the origin of replication (ori) is p15A, to thereby prepare recombinant MEKK1 vector. The whole DNA of human MKK7 was inserted into vector pGEX-4T1 (manufactured and sold by Pharmacia Biotech AB, Sweden), to thereby prepare recombinant GST-MKK7 vector. Two recombinant expression vectors prepared above were co-transformed into E. coli DH5α to thereby obtain an activated GST-MKK7, and the activated GST-MKK7 was purified from E. coli using Glutathione-Sepharose 4B column (manufactured and sold by Pharmacia Biotech AB, Sweden).\nA gene encoding human JNK1 was inserted into vector pGEX-4T1, thereby preparing recombinant GST-JNK1 vector, and the prepared recombinant vector was transformed into and expressed in E. coli. GST-JNK1 was purified from the transformants using Glutathione-Sepharose 4B column (manufactured and sold by Pharmacia Biotech AB, Sweden). […]\nUsing the activated MKK7 and JNK1 obtained above, the activity of MKK7 was determined in the following manner. […]"}
{"molecule": "B1", "values": [{"measurement": "activity of MKK7 (presence of activated JNK1)", "value": "confirmed"}]}
